Data on 2 proteins can be found in patent US8697714B2, “Quinazolinone based fluorogenic probes” (Nanyang Technological University, priority 2010, dated 2014).

Substrate in data set [1]: NCCCOc1ccc(Cl)cc1-c1nc2ccc(Cl)cc2c(=O)[nH]1
Put plainly: Enzymatic kinetics of MAO-HPQ 1 oxidation (Lineweaver-Burk plot), MAO A. It counts as biochemical. To be noted: other: MAO A, Tris-buffer 100 mM pH 7.90, 25° C., pH 7.9. The protocol: (§1) The enzyme kinetics was carried out in Tris-buffer (100 mM, pH 7.90) at 25° C. The enzymatic oxidation of fluorogenic substrate MAO-HPQ 1 was monitored in Varian Cary eclipse Fluorescence spectrophotometer. To a series of different MAO-HPQ 1 substrate concentration (ranged from 0˜250 μM) were added a solution of MAO A or MAO B enzyme with final concentration of […] was added to adjust the final volume to 100 μl. The rate of enzymatic oxidation was monitored with the increase of fluorescent enhancement at 530 nm. The values of the enzyme kinetic parameters (Km and Kcat) were determined from the standard Lineweaver-Burk plot, the double-reciprocal plot of the reaction rate versus MAO-HPQ 1 concentration.
(§2) Measurement of the fluorescent signal at different substrate concentrations provided the Michaelis-Menten kinetics constants.

Substrate in data set [2]: NCCCOc1ccc(Cl)cc1-c1nc2ccc(Cl)cc2c(=O)[nH]1
Put plainly: Enzymatic kinetics of MAO-HPQ 1 oxidation (Lineweaver-Burk plot), MAO B. The class given is biochemical. The settings on record: other: MAO B, Tris-buffer 100 mM pH 7.90, 25° C., pH 7.9. The protocol:
as §1, §2

B1: MAO A (Homo sapiens) (protein)
chain: MENQEKASIAGHMFDVVVIGGGISGLSAAKLLTEYGVSVLVLEARDRVGGRTYTIRNEHVDYVDVGGAYVGPTQNRILRLSKELGIETYKVNVSERLVQYVKGKTYPFRGAFPPVWNPIAYLDYNNLWRTIDNMGKEIPTDAPWEAQHADKWDKMTMKELIDKICWTKTARRFAYLFVNINVTSEPHEVSALWFLWYVKQCGGTTRIFSVTNGGQERKFVGGSGQVSERIMDLLGDQVKLNHPVTHVDQSSDNIIIETLNHEHYECKYVINAIPPTLTAKIHFRPELPAERNQLIQRLPMGAVIKCMMYYKEAFWKKKDYCGCMIIEDEDAPISITLDDTKPDGSLPAIMGFILARKADRLAKLHKEIRKKKICELYAKVLGSQEALHPVHYEEKNWCEEQYSGGCYTAYFPPGIMTQYGRVIRQPVGRIFFAGTETATKWSGYMEGAVEAGERAAREVLNGLGKVTEKDIWVQEPESKDVPAVEITHTFWERNLPSVSGLLKIIGFSTSVTALGFVLYKYKLLPRS
notes: purchased Sigma Aldrich
For B1, in data set [1], the Michaelis constant (Km) (in general, the substrate concentration at which the rate is half of its maximum) was 146.1 ± 7.21 µM and the kcat (usually the maximal rate divided by the concentration of active sites) was 0.163 ± 0.00817 s⁻¹.

B2: MAO B (Homo sapiens) (protein)
chain: MSNKCDVVVVGGGISGMAAAKLLHDSGLNVVVLEARDRVGGRTYTLRNQKVKYVDLGGSYVGPTQNRILRLAKELGLETYKVNEVERLIHHVKGKSYPFRGPFPPVWNPITYLDHNNFWRTMDDMGREIPSDAPWKAPLAEEWDNMTMKELLDKLCWTESAKQLATLFVNLCVTAETHEVSALWFLWYVKQCGGTTRIISTTNGGQERKFVGGSGQVSERIMDLLGDRVKLERPVIYIDQTRENVLVETLNHEMYEAKYVISAIPPTLGMKIHFNPPLPMMRNQMITRVPLGSVIKCIVYYKEPFWRKKDYCGTMIIDGEEAPVAYTLDDTKPEGNYAAIMGFILAHKARKLARLTKEERLKKLCELYAKVLGSLEALEPVHYEEKNWCEEQYSGGCYTTYFPPGILTQYGRVLRQPVDRIYFAGTETATHWSGYMEGAVEAGERAAREILHAMGKIPEDEIWQSEPESVDVPAQPITTTFLERHLPSVPGLLRLIGLTTIFSATALGFLAHKRGLLVRV
notes: purchased Sigma Aldrich
Consider B2, for which, in data set [2], the Michaelis-Menten constant (Km) turned out to be 106.8 ± 5.06 µM; the turnover number (kcat) was determined as 0.141 ± 0.007 s⁻¹; the specificity constant (kcat/Km) – broadly, the second-order rate constant that governs catalysis at low substrate concentration – stood at 1320 M⁻¹ s⁻¹.
